From patent publication US10555963B2, “Klotho protein and related compounds for the treatment and diagnosis of cancer” (TEL HASHOMER MEDICAL RESEARCH INFRASTRUCTURE AND SERVICES …, priority 2007, dated 2020)

Legend:
IGF-1R = biological target: T1, IGF-1R (Homo sapiens, UniProt P08069); test: Co-immunoprecipitation of HA-klotho protein and IGF-1R in MCF-7 cells; assay type: binding; conditions: MCF-7 cells expressing HA-klotho protein
T1 construct: endogenous in cells; host or cells: MCF-7 cells expressing HA-klotho (stably or transiently)
T1 sequence (P08069 31-1367): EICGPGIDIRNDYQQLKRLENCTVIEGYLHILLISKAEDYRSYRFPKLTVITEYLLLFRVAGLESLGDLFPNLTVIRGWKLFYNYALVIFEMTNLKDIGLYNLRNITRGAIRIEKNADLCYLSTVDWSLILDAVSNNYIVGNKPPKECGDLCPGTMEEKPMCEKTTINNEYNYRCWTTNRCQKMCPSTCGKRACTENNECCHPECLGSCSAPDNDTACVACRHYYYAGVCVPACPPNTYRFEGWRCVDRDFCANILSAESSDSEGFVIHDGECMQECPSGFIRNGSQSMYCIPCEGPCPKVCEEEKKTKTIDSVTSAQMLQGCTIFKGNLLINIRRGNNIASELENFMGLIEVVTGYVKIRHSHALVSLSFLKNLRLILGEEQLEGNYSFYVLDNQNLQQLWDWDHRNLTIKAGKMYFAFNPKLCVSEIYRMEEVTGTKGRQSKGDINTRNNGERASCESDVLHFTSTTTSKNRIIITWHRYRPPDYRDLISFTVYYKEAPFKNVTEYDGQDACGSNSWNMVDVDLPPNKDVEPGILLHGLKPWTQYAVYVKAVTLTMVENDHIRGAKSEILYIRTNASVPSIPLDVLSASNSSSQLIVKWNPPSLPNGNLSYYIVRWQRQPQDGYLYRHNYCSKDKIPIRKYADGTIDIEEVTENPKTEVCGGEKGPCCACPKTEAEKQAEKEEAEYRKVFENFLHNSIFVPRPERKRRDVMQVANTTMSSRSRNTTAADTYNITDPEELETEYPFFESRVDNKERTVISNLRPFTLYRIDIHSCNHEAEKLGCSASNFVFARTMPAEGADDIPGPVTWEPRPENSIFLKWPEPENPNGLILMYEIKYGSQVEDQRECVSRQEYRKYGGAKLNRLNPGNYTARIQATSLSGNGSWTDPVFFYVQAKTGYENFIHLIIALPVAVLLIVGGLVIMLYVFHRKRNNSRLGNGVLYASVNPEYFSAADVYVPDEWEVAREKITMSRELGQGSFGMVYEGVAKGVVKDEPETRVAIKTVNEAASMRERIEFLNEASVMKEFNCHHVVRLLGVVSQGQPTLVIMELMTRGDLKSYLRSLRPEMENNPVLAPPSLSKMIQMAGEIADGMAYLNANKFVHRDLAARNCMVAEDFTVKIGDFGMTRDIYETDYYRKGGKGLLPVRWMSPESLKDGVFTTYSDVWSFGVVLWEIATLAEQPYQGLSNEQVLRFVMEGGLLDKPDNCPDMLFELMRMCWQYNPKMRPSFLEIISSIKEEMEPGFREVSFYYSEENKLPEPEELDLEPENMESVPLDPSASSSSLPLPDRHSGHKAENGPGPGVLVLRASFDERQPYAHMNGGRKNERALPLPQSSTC
Procedure: Cells were harvested as for Western blot, and 400 μg protein lysate were incubated with IgG-Sepharose (Sigma) or protein A/G (Pierce, Rockford, Ill.) beads at 4° C. for 1 h to eliminate non-specifically bound proteins. These beads were subsequently used as a negative control. The supernatants were then incubated for 4 hours with either 2 μg anti-HA antibody (Sigma) or 2 μl of anti-IGF-1β-R (Santa Cruz Biotechnology) and IgG-Sepharose or protein A/G (Pierce, Rockford, Ill.), respectively, was added. Following an overnight incubation, the beads were washed 6 times in RIPA buffer and the immunoprecipitated materials were separated by SDS-PAGE and detected by Western blotting.
As klotho protein can bind FGFR and other membrane proteins, binding of klotho protein to the IGF-1R was examined. Co-immunoprecipitation assays were conducted using MCF-7 cells either stably (FIG. 10) or transiently (data not shown) expressing HA-klotho protein. HA-klotho protein was detected by Western blotting following immunoprecipitation of the IGF-1R, and the IGF-1R was detected following immunoprecipitation using HA-directed antibody.

[1] = tested on: MCF-7 and MDA-MB-231 clones; test: MTT proliferation assay of clones stably expressing klotho protein; assay type: cell-based, human; conditions: stable klotho protein-expressing clones vs pcDNA3 controls; 24-72 h
Procedure: The medium was aspirated, and the cells were dissolved by dimethyl sulfoxide (DMSO).
In order to assess the long-term effects of klotho protein expression, MCF-7 and MDA-MB-231 clones, which stably expressed either pcDNA3 or pcDNA3-HA-KL, were generated. Proliferation was evaluated by 3-(4,5-dimethylthiazol-2-yl)-2,5-diphenyltetrazolium bromide (MTT) assay after seeding for 24-72 h.

C/EBPβ in MCF-7 cells = test: C/EBPβ levels after klotho protein over-expression; assay type: cell-based, human; conditions: over-expression vs empty vector
Procedure: (§1) In further experiments, MCF-7, MDA-MB-231 or HEK-293 cells were transfected with either pcDNA3-HA-KL or empty vector and treated with IGF-1 (12.5 nM, 15 min).
C/EBPβ is a down-stream target of the GSK3β pathway, which is suppressed following stimulation by IGF-1 (Li et al., 2007). […] The effects of over-expression of klotho protein on C/EBPβ levels were therefore analyzed.

[2] = tested on: IGF-1 pathway in MCF-7 cells; test: IGF-1 pathway activation (Western blotting) after klotho protein over-expression; assay type: cell-based, human; conditions: IGF-1 12.5 nM, 15 min
Procedure: For breast cells, cells were harvested and lysed for total protein extraction in RIPA buffer (50 mM Tris-Cl pH 7.4, 150 mM NaCl, 1% NP-40, 0.25% Na-deoxycholate, 1 mM EDTA, 1 mM NaF) together with a protease inhibitor cocktail (Sigma). 50 μg protein extracts were loaded on 10% polyacrylamide gels, separated electrophoretically and blotted from the gel onto nitrocellulose membrane (Schleicher & Schuell Bioscience GmbH, Dassel, D E). The membranes were then immunoblotted with the indicated antibodies.
MDA-MB-231 cells, which express lower levels of these receptors, were also examined. HEK 293 cells, whose growth is not dependent on the IGF-1 pathway (El-Shewy et al., 2007) and is not inhibited by klotho protein, served as control.
In order to elucidate klotho protein activity as an inhibitor of […] activation, MCF-7 cells were transfected with either pcDNA3-HA-KL or an empty vector, starved for 48 hours, treated with IGF-1 for the indicated times and doses, and analyzed using Western blotting for the level of expression and phosphorylation of IGF-1R.
as §1

MCF-7 = test: Colony formation assay after transfection with klotho protein expression vector; assay type: cell-based, human; conditions: transfected pcDNA3-HA-KL vs empty vector; G418 two weeks; p<0.0005
Procedure: (§2) Two days following transfection with the indicated plasmids, G418 (750 μg/ml) was added to the culture media; and at day 14, the cells were stained using gentian violet. Untransfected cells were treated similarly, and all died within the 2 weeks of culture in the selection media. Quantification of the results was performed using AlphaImager 2000 (Alpha Innotech, CA).
(§3) The effect of klotho protein on growth of breast cancer cells was first assessed using colony formation assays. MCF-7, MDA-MB-231 and the non-cancerous human embryonic kidney (HEK) 293 cells were transfected with either a HA-tagged klotho protein expression vector (pcDNA3-HI-A-KL) or an empty vector (pcDNA3). Transfected cells were cultured in media containing G418 for two weeks and stained to determine the number of surviving colonies.

MDA-MB-231 = test: as above; assay type: cell-based, human; conditions: transfected pcDNA3-HA-KL vs empty vector; G418 two weeks; p<0.0005
Procedure: as §2, §3

B1: klotho protein: full length mouse Klotho (SEQ ID NO. 3) over-expressed in cells from HA-tagged expression vector pcDNA3-HA-KL (protein)
chain: MLARAPPRRPPRLVLLRLLLLHLLLLALRARCLSAEPGQGAQTWARFARAPAPEAAGLLHDTFPDGFLWAVGSAAYQTEGGWRQHGKGASIWDTFTHHSGAAPSDSPIVVAPSGAPSPPLSSTGDVASDSYNNVYRDTEGLRELGVTHYRFSISWARVLPNGTAGTPNREGLRYYRRLLERLRELGVQPVVTLYHWDLPQRLQDTYGGWANRALADHFRDYAELCFRHFGGQVKYWITIDNPYVVAWHGYATGRLAPGVRGSSRLGYLVAHNLLLAHAKVWHLYNTSFRPTQGGRVSIALSSHWINPRRMTDYNIRECQKSLDFVLGWFAKPIFIDGDYPESMKNNLSSLLPDFTESEKRLIRGTADFFALSFGPTLSFQLLDPNMKFRQLESPNLRQLLSWIDLEYNHPPIFIVENGWFVSGTTKRDDAKYMYYLKKFIMETLKAIRLDGVDVIGYTAWSLMDGFEWHRGYSIRRGLFYVDFLSQDKELLPKSSALFYQKLIEDNGFPPLPENQPLEGTFPCDFAWGVVDNYVQVDTTLSQFTDPNVYLWDVHHSKRLIKVDGVVAKKRKPYCVDFSAIRPQITLLREMRVTHFRFSLDWALILPLGNQTQVNHTVLHFYRCMISELVHANITPVVALWQPAAPHQGLPHALAKHGAWENPHTALAFADYANLCFKELGHWVNLWITMNEPNTRNMTYRAGHHLLRAHALAWHLYDDKFRAAQKGKISIALQADWIEPACPFSQNDKEVAERVLEFDIGWLAEPIFGSGDYPRVMRDWLNQKNNFLLPYFTEDEKKLVRGSFDFLAVSHYTTILVDWEKEDPMKYNDYLEVQEMTDITWLNSPSQVAVVPWGLRKVLNWLRFKYGDLPMYVTANGIDDDPHAEQDSLRIYYIKNYVNEALKAYVLDDINLCGYFAYSLSDRSAPKSGFYRYAANQFEPKPSMKHYRRIIDSNGFLGSGTLGRFCPEEYTVCTECGFFQTRKSLLVFISFLVFTFIISLALIFHYSKKGQRSYK
modifications: HA tag
In the case of B1, the “interaction with the IGF-1 receptor (co-immunoprecipitation)” value (IGF-1R) is reported as “interaction”, the “proliferation slower than controls (MTT assay)” value [1] is reported as “up to 6 fold” and the C/EBPβ levels (C/EBPβ in MCF-7 cells) is reported as “significant up-regulation”. The “phosphorylation of IGF-1R, IRS-1, AKT1, GSK3β, ERK-1 and -2” value [2] was “reduced phosphorylation”, the “reduction of number and size of surviving colonies” value (MCF-7) was 84% and the “reduction of number and size of surviving colonies” value (MDA-MB-231) was 72%.
